Key:
Assay in all cases: co-IP; substrate (Hmg2-GFP, Ste6*-GFP, CPY*-GFP with GFP-Trap; Pdr5*-Myc with Myc Trap) precipitated from yeast microsomes solubilised in Tween IP buffer (500 mM NaCl, 50 mM Tris pH 7.5, 10 mM EDTA, 1.5% Tween-20), overnight 4°C; blots with anti-HA, anti-Cdc48
Hmg2-GFP (S. cerevisiae) = Hmg2-GFP (S. cerevisiae) (UniProt P12684)
[1] = biological target: Ste6*-GFP (S. cerevisiae) (UniProt P12866)
[2] = biological target: Pdr5*-Myc (S. cerevisiae) (UniProt P33302)

Measured: fraction of Dfm1-5Ashp bound compared with wild-type Dfm1

Sequence of Dfm1-5Ashp (Q12743 whole entry): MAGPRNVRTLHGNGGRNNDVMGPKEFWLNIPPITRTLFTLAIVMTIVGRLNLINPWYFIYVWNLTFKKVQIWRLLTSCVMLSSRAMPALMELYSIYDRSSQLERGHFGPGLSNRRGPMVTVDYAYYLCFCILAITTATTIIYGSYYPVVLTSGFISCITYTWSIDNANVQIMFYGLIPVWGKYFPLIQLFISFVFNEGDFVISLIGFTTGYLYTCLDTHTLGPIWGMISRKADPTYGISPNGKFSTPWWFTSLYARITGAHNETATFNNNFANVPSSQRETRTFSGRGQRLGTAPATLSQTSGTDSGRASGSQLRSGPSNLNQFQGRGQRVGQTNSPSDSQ
Sequence of UniProt P33302 (P33302 whole entry): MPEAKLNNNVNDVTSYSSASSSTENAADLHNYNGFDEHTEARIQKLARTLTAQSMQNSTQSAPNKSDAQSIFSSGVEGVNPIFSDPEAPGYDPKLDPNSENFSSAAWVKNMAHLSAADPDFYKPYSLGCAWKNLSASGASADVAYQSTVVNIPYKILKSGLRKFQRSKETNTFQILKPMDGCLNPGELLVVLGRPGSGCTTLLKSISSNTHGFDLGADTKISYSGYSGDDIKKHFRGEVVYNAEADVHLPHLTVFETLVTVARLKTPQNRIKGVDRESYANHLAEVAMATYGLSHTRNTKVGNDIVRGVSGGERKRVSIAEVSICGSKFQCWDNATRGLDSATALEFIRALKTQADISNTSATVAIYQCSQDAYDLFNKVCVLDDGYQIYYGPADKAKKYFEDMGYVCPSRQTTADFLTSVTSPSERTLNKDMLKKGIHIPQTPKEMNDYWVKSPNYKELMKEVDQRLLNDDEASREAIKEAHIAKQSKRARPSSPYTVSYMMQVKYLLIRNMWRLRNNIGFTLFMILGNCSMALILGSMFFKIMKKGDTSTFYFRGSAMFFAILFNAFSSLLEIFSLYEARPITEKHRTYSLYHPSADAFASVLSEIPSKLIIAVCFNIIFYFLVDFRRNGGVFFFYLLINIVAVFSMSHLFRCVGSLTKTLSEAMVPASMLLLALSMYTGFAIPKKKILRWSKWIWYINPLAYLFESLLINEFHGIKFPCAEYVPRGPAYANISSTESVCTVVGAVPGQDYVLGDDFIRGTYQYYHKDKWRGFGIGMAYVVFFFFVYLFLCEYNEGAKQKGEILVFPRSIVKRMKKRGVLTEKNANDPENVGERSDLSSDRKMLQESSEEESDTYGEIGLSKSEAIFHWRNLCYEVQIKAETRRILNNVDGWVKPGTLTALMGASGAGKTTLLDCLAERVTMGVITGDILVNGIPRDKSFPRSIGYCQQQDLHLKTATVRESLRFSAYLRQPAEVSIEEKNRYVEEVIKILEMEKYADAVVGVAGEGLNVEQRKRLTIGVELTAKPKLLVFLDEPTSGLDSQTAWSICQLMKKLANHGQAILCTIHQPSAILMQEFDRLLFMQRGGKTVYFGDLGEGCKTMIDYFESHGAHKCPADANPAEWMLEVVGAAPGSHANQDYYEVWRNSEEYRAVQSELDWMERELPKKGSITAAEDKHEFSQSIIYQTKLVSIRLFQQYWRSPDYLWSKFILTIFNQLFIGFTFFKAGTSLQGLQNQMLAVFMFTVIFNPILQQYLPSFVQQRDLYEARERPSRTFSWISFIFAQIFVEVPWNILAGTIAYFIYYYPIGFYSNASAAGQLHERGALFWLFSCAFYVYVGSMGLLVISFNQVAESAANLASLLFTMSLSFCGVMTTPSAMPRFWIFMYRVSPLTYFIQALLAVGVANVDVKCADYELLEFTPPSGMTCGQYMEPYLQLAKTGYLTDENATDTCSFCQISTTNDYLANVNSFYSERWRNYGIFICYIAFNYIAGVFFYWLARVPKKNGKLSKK
Sequence of UniProt P12866 (P12866 whole entry): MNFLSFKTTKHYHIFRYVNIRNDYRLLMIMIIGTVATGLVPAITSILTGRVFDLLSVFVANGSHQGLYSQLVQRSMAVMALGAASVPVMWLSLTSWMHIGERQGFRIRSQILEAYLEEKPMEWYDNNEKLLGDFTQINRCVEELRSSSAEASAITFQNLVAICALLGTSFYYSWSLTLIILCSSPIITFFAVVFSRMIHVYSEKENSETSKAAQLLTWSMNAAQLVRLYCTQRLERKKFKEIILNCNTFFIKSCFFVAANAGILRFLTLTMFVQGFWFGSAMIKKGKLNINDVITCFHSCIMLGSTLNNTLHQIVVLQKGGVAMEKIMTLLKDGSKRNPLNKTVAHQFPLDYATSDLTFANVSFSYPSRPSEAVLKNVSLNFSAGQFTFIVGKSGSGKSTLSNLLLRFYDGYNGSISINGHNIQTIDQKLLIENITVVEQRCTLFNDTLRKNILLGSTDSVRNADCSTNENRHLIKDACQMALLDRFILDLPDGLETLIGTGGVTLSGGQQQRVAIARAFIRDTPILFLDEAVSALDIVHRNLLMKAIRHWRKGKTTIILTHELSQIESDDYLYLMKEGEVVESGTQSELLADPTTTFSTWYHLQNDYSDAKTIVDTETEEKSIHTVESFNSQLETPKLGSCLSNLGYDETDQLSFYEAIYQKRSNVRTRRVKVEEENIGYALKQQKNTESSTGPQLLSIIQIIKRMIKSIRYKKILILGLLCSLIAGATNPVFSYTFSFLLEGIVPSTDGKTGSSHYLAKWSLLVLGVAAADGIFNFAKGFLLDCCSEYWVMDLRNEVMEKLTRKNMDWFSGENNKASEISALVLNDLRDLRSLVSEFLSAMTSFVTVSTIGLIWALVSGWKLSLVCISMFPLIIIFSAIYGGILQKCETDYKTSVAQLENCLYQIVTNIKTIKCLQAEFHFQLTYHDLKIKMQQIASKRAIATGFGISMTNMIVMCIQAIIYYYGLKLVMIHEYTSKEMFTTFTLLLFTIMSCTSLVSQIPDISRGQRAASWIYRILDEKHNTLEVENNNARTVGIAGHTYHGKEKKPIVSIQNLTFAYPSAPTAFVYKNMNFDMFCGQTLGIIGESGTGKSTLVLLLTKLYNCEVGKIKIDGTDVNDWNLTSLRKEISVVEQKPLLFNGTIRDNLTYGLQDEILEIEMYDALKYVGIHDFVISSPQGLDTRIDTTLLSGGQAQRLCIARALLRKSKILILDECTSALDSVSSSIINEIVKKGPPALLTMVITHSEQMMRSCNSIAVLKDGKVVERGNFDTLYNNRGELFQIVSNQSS
Sequence of UniProt P12684 (P12684 whole entry): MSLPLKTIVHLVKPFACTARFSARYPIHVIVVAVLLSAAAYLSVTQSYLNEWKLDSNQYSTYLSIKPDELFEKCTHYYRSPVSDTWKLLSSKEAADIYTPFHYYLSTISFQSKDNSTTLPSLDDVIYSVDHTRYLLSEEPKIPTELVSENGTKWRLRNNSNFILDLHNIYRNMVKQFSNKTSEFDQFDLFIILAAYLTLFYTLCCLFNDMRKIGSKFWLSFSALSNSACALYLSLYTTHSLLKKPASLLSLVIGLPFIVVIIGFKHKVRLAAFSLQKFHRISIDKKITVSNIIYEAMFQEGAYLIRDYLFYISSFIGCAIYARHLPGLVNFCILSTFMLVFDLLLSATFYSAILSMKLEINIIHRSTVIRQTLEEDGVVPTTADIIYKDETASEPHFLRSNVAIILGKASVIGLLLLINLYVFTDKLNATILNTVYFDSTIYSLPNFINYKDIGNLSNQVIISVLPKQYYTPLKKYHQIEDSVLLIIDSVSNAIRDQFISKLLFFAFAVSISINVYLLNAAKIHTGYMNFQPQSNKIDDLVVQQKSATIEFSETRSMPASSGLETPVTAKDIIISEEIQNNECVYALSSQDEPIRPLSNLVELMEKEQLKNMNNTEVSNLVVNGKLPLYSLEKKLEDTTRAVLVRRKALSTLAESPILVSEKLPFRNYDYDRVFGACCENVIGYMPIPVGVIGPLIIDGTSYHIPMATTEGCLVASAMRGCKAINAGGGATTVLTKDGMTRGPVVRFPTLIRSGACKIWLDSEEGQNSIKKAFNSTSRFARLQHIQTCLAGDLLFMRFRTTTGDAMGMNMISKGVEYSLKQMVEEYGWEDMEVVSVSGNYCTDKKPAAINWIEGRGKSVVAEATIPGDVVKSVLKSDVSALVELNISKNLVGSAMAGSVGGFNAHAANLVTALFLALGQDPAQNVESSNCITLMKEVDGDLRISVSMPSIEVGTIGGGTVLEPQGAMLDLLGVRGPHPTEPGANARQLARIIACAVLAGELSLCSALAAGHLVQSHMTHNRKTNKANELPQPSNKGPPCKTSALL

Dfm1-5Ashp (from UniProt Q12743 1-341) (natural protein)
< 5%: all assays above
